Test results published in publication PMC5881488 (The Journal of Cell Biology, 2018).
Each block holds one molecule with its values, some of them ahead of it.

B2: MBP-Ana2 NT-2PM (aa 1–317, T33E/S38D) (domain or fragment, Drosophila, UniProt Q9XZ31 1-317, looked up)
chain: MFVPETEDMLPRLAPRPSAAVPMGHTNEIIGPEVPEVDILFGQPPQDPQMQPQQPNHAHQESSPRAAPTFASWKKQMLPRVNFSPILATELGPRTAPSSNSPCSSKEYQVMPRDRNYASDAQQTTNHMNCNAGGYNAEPKQQAYQSRRLSSSSNADVLTICAGTQTDPFNPSPPRKSLPQVVYSDIDVSNLANKSDLAALVSLVESVRHEQQQLRNLCEMILEQQQRAKPEAISKASSTTGTQCDILTTNQAGRRLSPIMQDYIAEEEEPLPPPQARVIPQFPSPRPHPPIAQSTGYRANTPQAKRIPQLAKPNTEK

Tests used:
[1] = biological target: MBP-Ana2 NT-2PM (aa 1–317, T33E/S38D) (Drosophila) (UniProt Q9XZ31); assay: pull-down
pull-down = biological target: the molecule itself; assay: pull-down
GST-Ana2, full length = biological target: T1, GST-Ana2, full length (Drosophila, UniProt Q9XZ31 1-420); assay: pull-down
T1 sequence (looked up): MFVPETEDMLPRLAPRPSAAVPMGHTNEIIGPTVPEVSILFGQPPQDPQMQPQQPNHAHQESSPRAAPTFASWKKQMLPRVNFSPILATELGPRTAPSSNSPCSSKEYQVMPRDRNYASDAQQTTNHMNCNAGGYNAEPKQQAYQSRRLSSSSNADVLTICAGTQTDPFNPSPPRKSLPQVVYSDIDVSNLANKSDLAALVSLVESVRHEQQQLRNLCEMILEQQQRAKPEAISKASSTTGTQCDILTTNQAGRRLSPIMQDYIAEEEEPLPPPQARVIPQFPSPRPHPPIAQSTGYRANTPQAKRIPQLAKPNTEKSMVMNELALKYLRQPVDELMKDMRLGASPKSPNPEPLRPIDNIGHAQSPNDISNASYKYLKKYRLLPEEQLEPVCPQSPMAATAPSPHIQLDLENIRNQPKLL

[2] = biological target: Plk4-GFP lacking the putative CC and PB3 (Drosophila); assay: co-IP
[3] = biological target: Plk4-GFP lacking PB3 (Drosophila); assay: co-IP
[4] = biological target: B2; assay: pull-down

fold of His6-Ana2 CT pulled down relative to WT NT with WT CT [1]: 3.5 fold
Molecule: His6-Ana2 CT-3PM (aa 318–420, S318/S370/S373 phosphomimetic) (from UniProt Q9XZ31 318-420) (domain or fragment)

binding result (GST-Ana2, full length): binds
B3: Plk4 1–317-FLAG-His6 (domain or fragment, Drosophila, UniProt O97143 1-317, looked up)
chain: MLSNRAFGETIEDYEVQHLLGKGGFATVYKARCLHTHQDVAIKMIDKKLIQGTGLTNRVRQEVEIHSRLKHPSVLQLYTFFQDANYVYLVLELAHNGELHRYMNHIARPFTETEAASILKQVVAGLLYLHSHNIMHRDISLSNLLLSREMHVKIADFGLATQLKRPDERHMTMCGTPNYISPEVVSRTSHGLPADVWSVGCMLYTLLVGRPPFETDAVQSTLNKVVMSEYIMPAHLSYEAQDLINKLLKKLPHERITLEAVLCHPFMLKCSNGGHSAPGALNVFSQSMESGDSGIITFASSDSRNSQQIRSVENSGP

binding result [4]: binds
B5: His6-Ana2 CT (aa 318–420), wild type (domain or fragment, Drosophila, UniProt Q9XZ31 318-420, looked up)
chain: SMVMNELALKYLRQPVDELMKDMRLGASPKSPNPEPLRPIDNIGHAQSPNDISNASYKYLKKYRLLPEEQLEPVCPQSPMAATAPSPHIQLDLENIRNQPKLL

The remaining lines, values behind:

B1: MBP-Ana2 NT (aa 1–317), wild type (domain or fragment, Drosophila, UniProt Q9XZ31 1-317, looked up)
chain: MFVPETEDMLPRLAPRPSAAVPMGHTNEIIGPTVPEVSILFGQPPQDPQMQPQQPNHAHQESSPRAAPTFASWKKQMLPRVNFSPILATELGPRTAPSSNSPCSSKEYQVMPRDRNYASDAQQTTNHMNCNAGGYNAEPKQQAYQSRRLSSSSNADVLTICAGTQTDPFNPSPPRKSLPQVVYSDIDVSNLANKSDLAALVSLVESVRHEQQQLRNLCEMILEQQQRAKPEAISKASSTTGTQCDILTTNQAGRRLSPIMQDYIAEEEEPLPPPQARVIPQFPSPRPHPPIAQSTGYRANTPQAKRIPQLAKPNTEK
binding result (pull-down): binds

Molecule: B2
binding result (pull-down): binds

B4: V5-Ana2 (anastral spindle 2), full length, wild type (natural protein)
chain: MFVPETEDMLPRLAPRPSAAVPMGHTNEIIGPTVPEVSILFGQPPQDPQMQPQQPNHAHQESSPRAAPTFASWKKQMLPRVNFSPILATELGPRTAPSSNSPCSSKEYQVMPRDRNYASDAQQTTNHMNCNAGGYNAEPKQQAYQSRRLSSSSNADVLTICAGTQTDPFNPSPPRKSLPQVVYSDIDVSNLANKSDLAALVSLVESVRHEQQQLRNLCEMILEQQQRAKPEAISKASSTTGTQCDILTTNQAGRRLSPIMQDYIAEEEEPLPPPQARVIPQFPSPRPHPPIAQSTGYRANTPQAKRIPQLAKPNTEKSMVMNELALKYLRQPVDELMKDMRLGASPKSPNPEPLRPIDNIGHAQSPNDISNASYKYLKKYRLLPEEQLEPVCPQSPMAATAPSPHIQLDLENIRNQPKLL
further fold decrease of co-precipitated Ana2 relative to deletion of PB3 alone [2]: 2 fold
fold decrease of co-precipitated Ana2 on deletion of PB3 [3]: 2 fold
